Reference: patent US20090203760A1 (UNIVERSITY OF QUEENSLAND, published 2009)
Bridges are numbered along the chain shown (N, C = ends). Where no end group is shown, it is not given here. [ ]: non-standard residue; d: D form. NMeF = CN[C@@H](Cc1ccccc1)C(=O)O; dCha = N[C@H](CC1CCCCC1)C(=O)O

T1: human C5a receptor (C5aR) on intact human polymorphonuclear leukocytes (PMNs) (human, UniProt P21730 1-350)
T1 construct: whole, on cells; Native receptor on fresh human PMNs; not a recombinant construct; also called PMN C5aR
T1 sequence (looked up): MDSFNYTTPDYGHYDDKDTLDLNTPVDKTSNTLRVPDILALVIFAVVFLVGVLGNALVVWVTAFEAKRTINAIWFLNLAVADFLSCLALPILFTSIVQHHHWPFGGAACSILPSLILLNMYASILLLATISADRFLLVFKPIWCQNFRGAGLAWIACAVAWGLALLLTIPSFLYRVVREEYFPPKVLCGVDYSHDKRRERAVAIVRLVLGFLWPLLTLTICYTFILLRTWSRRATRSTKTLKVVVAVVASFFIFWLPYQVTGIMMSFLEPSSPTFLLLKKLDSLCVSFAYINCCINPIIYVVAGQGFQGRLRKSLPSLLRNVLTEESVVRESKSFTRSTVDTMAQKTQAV


Legend:
[1] = molecular target: human C5a receptor (C5aR) on intact human polymorphonuclear leukocytes (PMNs) (human) (UniProt P21730); test: cell-based or functional assay
[2] = molecular target: human C5a receptor (C5aR) on intact human polymorphonuclear leukocytes (PMNs) (human) (UniProt P21730); test: 50% inhibition of [125I]C5a binding to intact PMNs
[3] = molecular target: human C5a receptor (C5aR) on intact human polymorphonuclear leukocytes (PMNs) (human) (UniProt P21730); test: 50% inhibition of [125I]C5a binding to intact PMNs; column head prints 'IC50 (M)', the pD2 shows µM
[4] = molecular target: T1, human C5a receptor (C5aR) on intact …; test: competition with 125I-C5a for binding to intact human PMNs, 4 °C
[5] = molecular target: T1, human C5a receptor (C5aR) on intact …; test: cell-based or functional assay
[6] = molecular target: T1, human C5a receptor (C5aR) on intact …; test: cell-based or functional assay; remark: listed apart in the source
[7] = molecular target: T1, human C5a receptor (C5aR) on intact …; test: unlabelled C5a competing with 125I-C5a for binding to intact human PMNs, 4 °C
[8] = molecular target: T1, human C5a receptor (C5aR) on intact …; test: 50% inhibition of [125I]C5a binding to intact PMNs; column head prints 'IC50 (M)', the pD2 shows µM

Molecule | pD2: 50% inhibition in the ability of C5a (100 nM) to cause the release of MPO from PMNs [1] | pD2 [2] | IC50: 50% inhibition in the ability of C5a (100 nM) to cause the release of MPO from PMNs [1] [µM] | further results
AcF-[KPdChaWr] (peptide) | 7.07 | – | – | –
AcF-[OPdChaWr] (peptide) | 7.3 | 4.6 | – | in vitro activity as a C5a antagonist in PMNs, against 17 [1]: 100 fold
F-[KPdChaWR] (peptide) | 6.69 | 6.5 | 0.2 | IC50 [2]: 0.3 µM
F-[KPdChaWr] (peptide) | 5.55 | 5.09 | 2.8 | IC50 [2]: 8.1 µM
F-[OPdChaWR] (peptide) | 7.41 | 7.21 | 0.04 | IC50 [2]: 0.06 µM
F-[OPdChaWr] (peptide) | 5.79 | 5.51 | 1.6 | IC50 [2]: 3.1 µM
FKMXWR (N-acetyl-Phe at 1; D-cyclohexylalanine (dCha) at 4; D-Arg at 6; cyclic over residues 2-6 (Lys side chain to C-terminus)) [AcF-[KMdChaWr]] | – | 4.81 | – | IC50 [3]: 15 µM
[NMeF]KP[dCha]WR (Linear; 7 with the chirality of Arg changed; also called ID NO:9) [MeFKP(dCha)WR] | – | – | – | IC50 [4]: 11 µM
[NMeF]KP[dCha]W[dR]-NH2 (Linear; C-terminal amide of 7; also called ID NO:8) [MeFKP(dCha)Wr-CONH2] | – | – | – | Antagonist Potency IC50: 50% reduction in myeloperoxidase secretion from human PMNs mediated by 100 nM C5a [5]: 0.5 µM; antagonist activity against 7 (myeloperoxidase release from human PMNs) [6]: ~5 fold; IC50 [4]: 14 µM
[NMeF]KPLWR (Linear; dCha replaced by Leu; also called 10; ID NO:10) [MeFKPLWR] | – | – | – | Antagonist Potency IC50: 50% reduction in myeloperoxidase secretion from human PMNs mediated by 100 nM C5a [5]: > 1000 µM; IC50 [4]: 144 µM
Ac-FKK[dCha]W[dR] (lactam 2-C; SMILES CC(=O)N[C@@H](Cc1ccccc1)C(=O)N[C@H]1CCCCNC(=O)[C@@H](CCCNC(=N)N)NC(=O)[C@H](Cc2c[nH]c3ccccc23)NC(=O)[C@@H](CC2CCCCC2)NC(=O)[C@H](CCCCN)NC1=O) [AcF-[KKdChaWr]] | 4.88 | 3.94 | 13 | IC50 [3]: 116 µM
cyclo(FWP[dCha]W[dR]) (SMILES N=C(N)NCCC[C@H]1NC(=O)[C@H](Cc2c[nH]c3ccccc23)NC(=O)[C@@H](CC2CCCCC2)NC(=O)[C@@H]2CCCN2C(=O)[C@H](Cc2c[nH]c3ccccc23)NC(=O)[C@H](Cc2ccccc2)NC1=O) [[FWPdChaWr]] | – | 4.37 | – | IC50 [3]: 43 µM
human recombinant C5a (ligand, UniProt P01031 678-751, looked up, tracer form: Hunter/Bolton labelled 125I (New England Nuclear); unlabelled competitor form: none stated, mature) TLQKKIEEIAAKYKHSVVKKCCYDGACVNNDETCEQRAARISLGPRCIKAFTECCVVASQLRANISHKDMQLGR | – | – | – | IC50 [7]: 0.0008 µM
KFXPXWR (N-acetyl-Lys at 1; ornithine (O) at 3; D-cyclohexylalanine (dCha) at 5; D-Arg at 7; cyclic over residues 3-7 (ornithine side chain to C-terminus), Cyclic) [AcKF-[OPdChaWr]] | – | – | – | IC50 [8]: 11 µM
